For 4 molecules, Kd and Ki results are on record in PMC8175443, “In vitro assessment and phase I randomized clinical trial of anfibatide a snake venom derived anti-thrombotic agent targeting human platelet GPIbα” (Scientific Reports, 2021).

Sequences and labels used below:
B3: anfibatide (natural protein)
chain 1: DVDCLPGWSAYDQSCYRVFKLLKTWDDAEKFCTERPKGGHLVSIESAGERDFVAQLVSENKQTDNVWLGLKIQSKGQQCSTEWTDGSSVSYENFSEYQSKKCFVLEKNTGFRTWLNLNCGSEYAFVCKSPP
chain 2: GFCCPLRWSSYEGHCYLVVKEKKTWDDAEKFCTEQRKGGHLVSVHSREEADFLVHLAYPILDLSLIWMGLSNMWNDCKREWSDGTKLDFKAWAKTSDCLIGKTDGDNQWLNMDCSKKHYFVCKFKL
notes: anfibatide (agkisacucetin) alpha-subunit, snaclec of Deinagkistrodon acutus venom; disulfide-linked to the beta-subunit; anfibatide (agkisacucetin) beta-subunit, snaclec of Deinagkistrodon acutus venom; disulfide-linked to the alpha-subunit; Disulfide-linked alpha-beta heterodimer; MALDI-TOF single peak at m/z 29,799.7; also called agkisacucetin

For experiment [1], the target named is GPIbα (Homo sapiens) (UniProt P07359). As to conditions: cited from earlier work.
Experiment [2] addresses B3. Briefly: SPR; GPIbαN-Long captured by immobilised anti-SV40 mAb LJ-3A2 on an HC200M chip; anfibatide injected at increasing concentrations, 75 μL/min for 3 min; Biacore 3000; 135 mM NaCl, 20 mM HEPES pH 7.4, 0.005% Tween 20; steady-state mass ratios fit to a one-site model. The following applies: both partners purified. Background: In SPR one partner is held on a chip, and binding of the other changes the refractive index at the surface.

The target of experiment [3] is T1, GPIbα on human washed platelets (human (endogenous in platelets), UniProt P07359 17-652).
T1 construct: human platelet glycoprotein Ibα, endogenous on the platelet surface; also called platelet GPIbα; glycoprotein (GP) Ibα; source: endogenous, washed platelets of healthy human volunteers
Briefly: flow cytometry on cells; competition on human washed platelets (2 x 10^7/mL, modified Tyrode's buffer pH 7.4, room temperature, 30 min); ligand: FITC-conjugated mAb LJ-Ib10 at 10 nM; anfibatide 0-200 nM added 5 min before; Ki by Cheng-Prusoff. As to conditions: one partner purified. (In general: A flow cytometer gives signals particle by particle.)

Experiment [4] deals with T1, GPIbα on human washed platelets. Briefly: flow cytometry on cells; competition on human washed platelets (2 x 10^7/mL, modified Tyrode's buffer pH 7.4, room temperature, 30 min); ligand: BP-αFIIa at 80 nM with streptavidin-PE; anfibatide 0-200 nM added 5 min before; Ki by Cheng-Prusoff. As to conditions: one partner purified.
Experiment [5] has the same target. The experiment is described as follows: flow cytometry on cells; competition on human washed platelets (2 x 10^7/mL, modified Tyrode's buffer pH 7.4, room temperature, 30 min); ligand: VWF A1 domain at 1.5 nM with FITC anti-VWF mAb; anfibatide 0-200 nM added 5 min before; Ki by Cheng-Prusoff. As to conditions: one partner purified.

For VWF (from UniProt P04275), the Kd in experiment [1] is 1.5 nM.

B1: GPIbαN-Long WT (domain or fragment)
chain: HPHPICEVSKVASHLEVNCDKRNLTALPPDLPKDTTILHLSENLLYTFSLATLMPYTRLTQLNLDRCELTKLQVDGTLPVLGTLDLSHNQLQSLPLLGQTLPALTVLDVSFNRLTSLPLGALRGLGELQELYLKGNELKTLPPGLLTPTPKLEKLSLANNNLTELPAGLLNGLENLDTLLLQENSLYTIPKGFFGSHLLPFAFLHGNPWLCNCEILYFRRWLQDNAENVYVWKQGVDVKAMTSNVASVQCDNSDKFPVYKYPGKGCPTLGDEGDTDLYDYYPEEDTEGDK
modifications: sulfotyrosine at 276, 278, 279 (post translational sulfation that normally occurs at these positions)
In the case of B1, the Kd in experiment [2] was 21 ± 0.9 nM.

B2: GPIbαN-Long 3Y/F (domain or fragment)
chain: HPHPICEVSKVASHLEVNCDKRNLTALPPDLPKDTTILHLSENLLYTFSLATLMPYTRLTQLNLDRCELTKLQVDGTLPVLGTLDLSHNQLQSLPLLGQTLPALTVLDVSFNRLTSLPLGALRGLGELQELYLKGNELKTLPPGLLTPTPKLEKLSLANNNLTELPAGLLNGLENLDTLLLQENSLYTIPKGFFGSHLLPFAFLHGNPWLCNCEILYFRRWLQDNAENVYVWKQGVDVKAMTSNVASVQCDNSDKFPVYKYPGKGCPTLGDEGDTDLFDFFPEEDTEGDK
modifications: no Tyr sulfation at mature 276, 278, 279 (Tyr to Phe). Mature residue 1 = precursor 17 with no residue 0, so -2 = precursor 15. Disulfide-linked dimer through terminal Cys of the C-terminal …
On to B2, for which the Kd in experiment [2] was determined as 90.5 ± 9.2 nM.

For B3, the Ki in experiment [3] turned out to be 3.4 ± 1.1 nM; in experiment [4] it was 1.4 ± 0.1 nM; in experiment [5] it was 1.2 ± 0.5 nM.

As usually defined, the Kd is a measure of binding affinity in units of concentration. What is called Ki is a measure of affinity in units of concentration, obtained from inhibition or displacement.
